Results taken from the RNAGym collection of RNA variant scans (doi:10.1093/nar/gkz1192).

B1: CPEB3 Ribozyme (parent)
chain: UAACAGGGGGCCACAGCAGAAGCGUUCACGUCGCAGCCCCUGUCAGAUUCUGGUGAAUCUGCGAAUUCUGCUGUAUAUCUC

Variants of: B1
Assay: self-cleavage, relative activity (ratio to wild type); higher = more cleavage; in vitro, sequencing
Summary of the method: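 Barcoded CPEB3 ribozyme mutants, produced by rounds of error-prone PCR, self-cleaved while being transcribed with T7 RNA polymerase for 5 hours at 37°C and during a subsequent 15 min DNase I step before EDTA was added. Sequencing of template-switched cDNA on Illumina gave cleaved and total reads, and DNA sequencing assigned barcodes to variants. Each variant's relative activity is its cleaved/total read fraction divided by the unmutated ribozyme's fraction, averaged across three batches. A variant needed a minimum of 5 reads.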
Variant UAACAGGGGGCCACAGCAGAAGCGUUCACGUCGCAGCUCCUGUCAGAUUCUGGUGAAUCUGCGAAUUCUGCUGUAUAUCCC has a self-cleavage of 1.01.
Variant UAACAGGGGGCCACAGCAGAAGCGUUCACGUCGCAGCUCCUGUCAGAUUCUGGUGAAUCUGCGAAUUCUGCUGUAUAUCAC has a self-cleavage of 0.96.
Variant UAACAGGGGGCCACAGCAGAAGCGUUCACGUCGCAGCUCCUGUCAGAUUCUGGUGAAUCUGCGAAUUCUGCUGUAUAUCGC has a self-cleavage of 1.03.
UAACAGGGGGCCACAGCAGAAGCGUUCACGUCGCAGCUCCUGUCAGAUUCUGGUGAAUCCGCGAAUUCUGCUGUAUAUCUC gave a self-cleavage of 0.33.
UAACAGGGGGCCACAGCAGAAGCGUUCACGUCGCAGCUCCUGUCAGAUUCUGGUGAAUCGGCGAAUUCUGCUGUAUAUCUC showed a self-cleavage of 0.25.
In the case of UAACAGGGGGCCACAGCAGAAGCGUUCACGUCGCAGCCACUGUCAGAUUCUGGUGAAUCUGCGAAUUCUACUGUAUAUCUC, the self-cleavage is reported as 0.11.
Work on UAACAGGGGGCCACAGCAGAAGCGUUCACGUCGCAGCCACUGUCAGAUUCUGGUGAAUCUGCGAAUUCUGUUGUAUAUCUC yielded a self-cleavage of 0.11.
Work on UAACAGGGGGCCACAGCAGAAGCGUUCACGUCGCAGCUCCUGCCAGAUUCUGGUGAAUCUGCGAAUUCUGCUGUAUAUCUC yielded a self-cleavage of 0.28.
Variant UAACAGGGGGCCACAGCAGAAGCGUUCACGUCGCAGCCACUGUCAGAUUCUGGUGAAUCUGCGAAUUCUGCUGUAUAUCUG has a self-cleavage of 0.16.
Work on UAACAGGGGGCCACAGCAGAAGCGUUCACGUCGCAGCCACUGUCAGAUUCUGGUGAAUCUGCGAAUUCUGCUCUAUAUCUC yielded a self-cleavage of 0.76.
UAACAGGGGGCCACAGCAGAAGCGUUCACGUCGCAGCCACUGUCAGAUUCUGGUGAAUCCGCGAAUUCUGCUGUAUAUCUC gave a self-cleavage of 0.13.
UAACAGGGGGCCACAGCAGAAGCGUUCACGUCGCAGCCACUGUCAGAUUCUGGUGAAUCAGCGAAUUCUGCUGUAUAUCUC showed a self-cleavage of 0.18.
In the case of UAACAGGGGGCCACAGCAGAAGCGUUCACGUCGCAGCCACUGUCAGAUUCUGGUGAAUCGGCGAAUUCUGCUGUAUAUCUC, the self-cleavage is reported as 0.09.
UAACAGGGGGCCACAGCAGAAGCGUUCACGUCGCAGCCACUGUCAGAUUCCGGUGAAUCUGCGAAUUCUGCUGUAUAUCUC gave a self-cleavage of 0.34.
In the case of UAACAGGGGGCCACAGCAGAAGCGUUCACGUCGCAGCCACUGUCAGAUUCUGGUGAAUCUGCGAAUUCAGCUGUAUAUCUC, the self-cleavage is reported as 0.22.
For UAACAGGGGGCCACAGCAGAAGCGUUCACGUCGCAGCCACUGUCAGAUUCUGGUGAAUCUGCGAAUUCCGCUGUAUAUCUC, the self-cleavage was 0.16.
In the case of UAACAGGGGGCCACAGCAGAAGCGUUCACGUCGCAGCUCCUGUCAGAUUCUGGUGAAUCUGCGAAUUCUGCUGUAAAUCUC, the self-cleavage is reported as 1.16.
Variant UAACAGGGGGCCACAGCAGAAGCGUUCACGUCGCAGCUCCUGUCAGAUUCUGGUGAAUCUGCGAAUUCUGCUGUACAUCUC has a self-cleavage of 1.01.
UAACAGGGGGCCACAGCAGAAGCGUUCACGUCGCAGCCACUGUCAGAUUCUGGUGAAUCUGCGAACUCUGCUGUAUAUCUC gave a self-cleavage of 0.39.
UAACAGGGGGCCACAGCAGAAGCGUUCACGUCGCAGCCAUUGUCAGAUUCUGGUGAAUCUGCGAAUUCUGCUGUAUAUCUC gave a self-cleavage of 0.38.
UAACAGGGGGCCACAGCAGAAGCGUUCACGUCGCAGCCACUGUCAGGUUCUGGUGAAUCUGCGAAUUCUGCUGUAUAUCUC gave a self-cleavage of 0.35.
With UAACAGGGGGCCACAGCAGAAGCGUUCACGUCGCAGCCACUGUCAGCUUCUGGUGAAUCUGCGAAUUCUGCUGUAUAUCUC the self-cleavage was 0.2.
Variant UAACAGGGGGCCACAGCAGAAGCGUUCACGUCGCAGCCACUGUCAGAUUCUGGUGACUCUGCGAAUUCUGCUGUAUAUCUC has a self-cleavage of 0.14.
With UAACAGGGGGCCACAGCAGAAGCGUUCACGUCGCAGCCACUGUCAGAUUCUGGUGAGUCUGCGAAUUCUGCUGUAUAUCUC the self-cleavage was 0.3.
UAACAGGGGGCCACAGCAGAAGCGUUCACGUCGCAGCUCCUGUCAGAUUCAGGUGAAUCUGCGAAUUCUGCUGUAUAUCUC gave a self-cleavage of 0.46.
Variant UAACAGGGGGCCACAGCAGAAGCGUUCACGUCGCAGCUCCUGUCAGAUCCUGGUGAAUCUGCGAAUUCUGCUGUAUAUCUC has a self-cleavage of 0.34.
Variant UAACAGGGGGCCACAGCAGAAGCGUUCACGUCGCAGCUCCUGUCAGAUGCUGGUGAAUCUGCGAAUUCUGCUGUAUAUCUC has a self-cleavage of 0.37.
UAACAGGGGGCCACAGCAGAAGCGUUCACGUCGCAGCCACUGUCAGAUUCUGGUGAACCUGCGAAUUCUGCUGUAUAUCUC gave a self-cleavage of 0.19.
In the case of UAACAGGGGGCCACAGCAGAAGCGUUCACGUCGCAGCCACUGUCAGAUUCUGGUGAAUCUGCGGAUUCUGCUGUAUAUCUC, the self-cleavage is reported as 0.05.
UAACAGGGGGCCACAGCAGAAGCGUUCACGUCGCAGCCACUGUCAGAUUCUGGUGAAUCUGCGUAUUCUGCUGUAUAUCUC showed a self-cleavage of 0.22.
UAACAGGGGGCCACAGCAGAAGCGUUCACGUCGCAGCUCCUGUCAGAUUCUGGUGAAUCUGCGAAUUCUUCUGUAUAUCUC gave a self-cleavage of 0.38.
Work on UAACAGGGGGCCACAGCAGAAGCGUUCACGUCGCAGCCACUGUCAGAUUCUGGUGAAUCUGCGAGUUCUGCUGUAUAUCUC yielded a self-cleavage of 0.11.
In the case of UAACAGGGGGCCACAGCAGAAGCGUUCACGUCGCAGCCACUGUCAGAUUCUGGUGAAUCUGCGAAUUCUGCUGUAUGUCUC, the self-cleavage is reported as 0.22.
With UAACAGGGGGCCACAGCAGAAGCGUUCACGUCGCAGCCACUGUCAGAUUCUGGUGAAUCUGCGAAUUCUGCUGUAUUUCUC the self-cleavage was 0.32.
UAACAGGGGGCCACAGCAGAAGCGUUCACGUCGCAGCCACUGCCAGAUUCUGGUGAAUCUGCGAAUUCUGCUGUAUAUCUC showed a self-cleavage of 0.4.
For UAACAGGGGGCCACAGCAGAAGCGUUCACGUCGCAGCCACUGACAGAUUCUGGUGAAUCUGCGAAUUCUGCUGUAUAUCUC, the self-cleavage was 0.38.
Work on UAACAGGGGGCCACAGCAGAAGCGUUCACGUCGCAGCCACAGUCAGAUUCUGGUGAAUCUGCGAAUUCUGCUGUAUAUCUC yielded a self-cleavage of 0.27.
UAACAGGGGGCCACAGCAGAAGCGUUCACGUCGCAGCCACCGUCAGAUUCUGGUGAAUCUGCGAAUUCUGCUGUAUAUCUC gave a self-cleavage of 0.35.
Work on UAACAGGGGGCCACAGCAGAAGCGUUCACGUCGCAGCCACUGUCAGAUACUGGUGAAUCUGCGAAUUCUGCUGUAUAUCUC yielded a self-cleavage of 0.23.
UAACAGGGGGCCACAGCAGAAGCGUUCACGUCGCAGCUCCUGUCAGAUUCUGGUGAAUCUGCGAAUACUGCUGUAUAUCUC gave a self-cleavage of 0.41.
UAACAGGGGGCCACAGCAGAAGCGUUCACGUCGCAGCCACUGUCAGAUUCUGGAGAAUCUGCGAAUUCUGCUGUAUAUCUC gave a self-cleavage of 0.16.
For UAACAGGGGGCCACAGCAGAAGCGUUCACGUCGCAGCCACUGUCAGAUUCUGGCGAAUCUGCGAAUUCUGCUGUAUAUCUC, the self-cleavage was 0.25.
In the case of UAACAGGGGGCCACAGCAGAAGCGUUCACGUCGCAGCUCCCGUCAGAUUCUGGUGAAUCUGCGAAUUCUGCUGUAUAUCUC, the self-cleavage is reported as 0.87.
Variant UAACAGGGGGCCACAGCAGAAGCGUUCACGUCGCAGCUCCGGUCAGAUUCUGGUGAAUCUGCGAAUUCUGCUGUAUAUCUC has a self-cleavage of 0.42.
With UAACAGGGGGCCACAGCAGAAGCGUUCACGUCGCAGCUCCAGUCAGAUUCUGGUGAAUCUGCGAAUUCUGCUGUAUAUCUC the self-cleavage was 0.42.
UAACAGGGGGCCACAGCAGAAGCGUUCACGUCGCAGCCACUGUCGGAUUCUGGUGAAUCUGCGAAUUCUGCUGUAUAUCUC gave a self-cleavage of 0.33.
In the case of UAACAGGGGGCCACAGCAGAAGCGUUCACGUCGCAGCCACUGUCAGAUUCUGGUGAAUCUGCGAAUACUGCUGUAUAUCUC, the self-cleavage is reported as 0.34.
Variant UAACAGGGGGCCACAGCAGAAGCGUUCACGUCGCAGCCACUGUCAGAUUCUGGUGAAUCUGCGAAUCCUGCUGUAUAUCUC has a self-cleavage of 0.16.
Work on UAACAGGGGGCCACAGCAGAAGCGUUCACGUCGCAGCCACUGUCAGAUUCUGGUGAAUCUGCGAAUUGUGCUGUAUAUCUC yielded a self-cleavage of 0.17.
Variant UAACAGGGGGCCACAGCAGAAGCGUUCACGUCGCAGCCACUGUCAGAAUCUGGUGAAUCUGCGAAUUCUGCUGUAUAUCUC has a self-cleavage of 0.21.
With UAACAGGGGGCCACAGCAGAAGCGUUCACGUCGCAGCCACUGUCAGACUCUGGUGAAUCUGCGAAUUCUGCUGUAUAUCUC the self-cleavage was 0.12.
In the case of UAACAGGGGGCCACAGCAGAAGCGUUCACGUCGCAGCUCCUGUCAGAUUCUGGCGAAUCUGCGAAUUCUGCUGUAUAUCUC, the self-cleavage is reported as 0.68.
For UAACAGGGGGCCACAGCAGAAGCGUUCACGUCGCAGCUCCUGUCAGAUUCUGGAGAAUCUGCGAAUUCUGCUGUAUAUCUC, the self-cleavage was 0.85.
UAACAGGGGGCCACAGCAGAAGCGUUCACGUCGCAGCUCCUGUCAGAUUCUGGUGAAUCUGCGAAUUCUGCUGUAUAACUC gave a self-cleavage of 1.17.
For UAACAGGGGGCCACAGCAGAAGCGUUCACGUCGCAGCUCCUGUCAGAUUCUGGUGAAUCUGCGAAUUCUGCUGUAUACCUC, the self-cleavage was 0.67.
UAACAGGGGGCCACAGCAGAAGCGUUCACGUCGCAGCUCCUGUCAGACUCUGGUGAAUCUGCGAAUUCUGCUGUAUAUCUC showed a self-cleavage of 0.35.
Work on UAACAGGGGGCCACAGCAGAAGCGUUCACGUCGCAGCCACUGUCAGAUUCUGGUGGAUCUGCGAAUUCUGCUGUAUAUCUC yielded a self-cleavage of 0.26.
Variant UAACAGGGGGCCACAGCAGAAGCGUUCACGUCGCAGCCACUGUCAGAUUCUGGUGUAUCUGCGAAUUCUGCUGUAUAUCUC has a self-cleavage of 0.09.
With UAACAGGGGGCCACAGCAGAAGCGUUCACGUCGCAGCUCCUGUCAGAUUCUGGUGAAGCUGCGAAUUCUGCUGUAUAUCUC the self-cleavage was 0.08.
For UAACAGGGGGCCACAGCAGAAGCGUUCACGUCGCAGCUCCUGUCAGAUUCUGGUGAACCUGCGAAUUCUGCUGUAUAUCUC, the self-cleavage was 0.19.
With UAACAGGGGGCCACAGCAGAAGCGUUCACGUCGCAGCUCCUGUCAGAUUCUGGUGAAUCUGCGAAUUCAGCUGUAUAUCUC the self-cleavage was 0.53.
Variant UAACAGGGGGCCACAGCAGAAGCGUUCACGUCGCAGCUCCUGUCAGAUUCUGGUGAAUCUGCGAAUUCGGCUGUAUAUCUC has a self-cleavage of 0.42.
Work on UAACAGGGGGCCACAGCAGAAGCGUUCACGUCGCAGCUCCUGUCAGAUUCUGGUGAAUCUGCGAAUUCCGCUGUAUAUCUC yielded a self-cleavage of 0.38.
With UAACAGGGGGCCACAGCAGAAGCGUUCACGUCGCAGCCACUGUCAGAUUCUGGUGAAUCUGCGAAUUCUGCUGUAUAUCUC the self-cleavage was 0.31.
UAACAGGGGGCCACAGCAGAAGCGUUCACGUCGCAGCUCCUGUCAGAUUCUGGUGAAUCUGCGAAUUCUGCUGCAUAUCUC showed a self-cleavage of 1.26.
UAACAGGGGGCCACAGCAGAAGCGUUCACGUCGCAGCUCCUGUCAGAUUCUGGUGAAUCUGCGAAUUCUGCUGAAUAUCUC gave a self-cleavage of 1.1.
In the case of UAACAGGGGGCCACAGCAGAAGCGUUCACGUCGCAGCUCCUGUCAGAUUCUGGUGAAUCUGCGAAUUCUGCCGUAUAUCUC, the self-cleavage is reported as 1.01.
Work on UAACAGGGGGCCACAGCAGAAGCGUUCACGUCGCAGCUCCUGUCAGAUUCUGGUGAAUCUGCGAAUUCUGCAGUAUAUCUC yielded a self-cleavage of 0.37.
